Results from the supplement of paper PMC10126150.
± gives the standard deviation of the averaged measurements.

System: ATP
Test: switch fluorescence ratio, 500 uM ATP over buffer (Cy3 cluster intensity, sum of 5 cycles each) (fold (ratio)); higher = stronger signal-on switching upon ATP binding; sequences stand for … in TCGTCGGCAGCGTCAGATGTGTATAAGAGACAGTTTTTTTTTTTTTTTTTTTTTTTTT…TC
Conditions: aptamer strand: ATP DNA aptamer (quencher-CACCTGGGGGAGTATTGCGGAGGAAGG + anchor), 100 nM annealed; ATP concentration: 500 uM
In short: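 Switching-strand clusters labelled with Cy3 on a modified Illumina MiSeq flow-cell were annealed to 100 nM quencher-labelled ATP aptamer, imaged in selection buffer, and re-imaged after 15 min with 500 uM ATP at 22 °C. This was done over five cycles with NaOH stripping and re-annealing in between. The fluorescence ratio is summed target-cycle over summed buffer-cycle Cy3 intensity per cluster, averaged per switch-domain sequence, excluding clusters outside 100-1000 RFU.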
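Also: ATP exposure 15 min at 22 °C before imaging.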

Sequence	switch fluorescence ratio
AAAGAGTAGT	0.962 ± 0.014
AAAGAGTATA	0.9972 ± 0.0036
AAAGAGTTGG	0.99 ± 0.047
AAAGATAATG	1.003 ± 0.0091
AAAGATGTCG	1.07 ± 0.044
AAAGCAGTTT	1.05 ± 0.022
AAAGCCGGTG	1.022 ± 0.00024
AAAGCCGTTT	1.2 ± 0.27
AAAGCTATAT	1.12 ± 0.011
AAAGCTGCCA	1.004 ± 0.0056
AAAGGAAAAC	1 ± 0.022
AAAGGAACAG	1.03 ± 0.017
AAAGGAAGAT	0.993 ± 0.055
AAAGGATAAG	0.993 ± 0.038
AAAGGATATC	1.036 ± 0.0028
AAAGGATGGG	1 ± 0.016
AAAGGATTTA	1.02 ± 0.061
AAAGGCATTC	1.05 ± 0.025
AAAGGGAACA	1.01 ± 0.019
AAAGGGAGAA	0.971 ± 0.011
AAAGGGCATC	1.01 ± 0.058
AAAGGGGAAC	1.03 ± 0.028
AAAGGGGATC	0.998 ± 0.017

Sequence	switch fluorescence ratio
AAAGGGGCTG	0.98 ± 0.061
AAAGGGGGGA	0.995 ± 0.029
AAAGGGTATC	0.9956 ± 0.0092
AAAGGGTGTG	1 ± 0.019
AAAGGGTTAG	1 ± 0.028
AAAGGGTTCT	0.994 ± 0.04
AAAGGGTTGA	0.9559 ± 0.0011
AAAGGGTTTG	1.01 ± 0.033
AAAGGTCCGC	1.18 ± 0.051
AAAGGTCGAT	0.986 ± 0.022
AAAGGTGATG	0.978 ± 0.04
AAAGGTTGAT	1.01 ± 0.011
AAAGTATCTT	1.02 ± 0.037
AAAGTATTTC	1.02 ± 0.015
AAAGTCAGTA	0.9818 ± 0.007
AAAGTCATGG	0.948 ± 0.013
AAAGTCCTA	0.982 ± 0.015
AAAGTCGTTC	0.977 ± 0.028
AAAGTGGGGT	1 ± 0.018
AAAGTGGTGT	0.9845 ± 0.0018
AAAGTTCGAA	0.977 ± 0.035
AAAGTTCGAG	0.99 ± 0.021
AAAGTTCGGC	1.06 ± 0.024

Sequence	switch fluorescence ratio
AAAGTTTATG	1.007 ± 0.0053
AAAGTTTCTC	1 ± 0.032
AAAGTTTGG	0.977 ± 0.017
AAAGTTTTAT	0.984 ± 0.025
AAAGTTTTTT	1.19 ± 0.39
AAATAAACGC	1.025 ± 0.0031
AAATAATTAG	1.01 ± 0.016
AAATACCCAG	1.04 ± 0.034
AAATAGAAAT	0.96 ± 0.011
AAATAGATCG	1.05 ± 0.066
AAATAGTGCC	1.036 ± 0.0029
AAATATGAGC	0.993 ± 0.033
AAATATTTAC	1.12 ± 0.11
AAATCAAGTG	0.97516 ± 1.6e-05
AAATCCGCG	1.28 ± 0.031
AAATCCGGTT	1.008 ± 0.0028
AAATCGGTGG	1.01 ± 0.046
AAATCGTATG	0.974 ± 0.034
AAATCGTCCA	0.992 ± 0.057
AAATCTCTTT	1 ± 0.014
AAATCTGTAG	0.9849 ± 0.002
AAATGAAAAA	0.99 ± 0.091
AAATGATAGC	1.016 ± 0.0037

Sequence	switch fluorescence ratio
AAATGATCCG	1.08 ± 0.063
AAATGCAGCT	0.977 ± 0.016
AAATGCGGCC	1 ± 0.067
AAATGCTACT	1.02 ± 0.028
AAATGCTGGG	0.99 ± 0.031
AAATGGAGGG	1.01 ± 0.044
AAATGGCTGG	0.9982 ± 0.0091
AAATGGGAGG	0.996 ± 0.032
AAATGGGGGA	0.991 ± 0.04
AAATGGTCGA	0.974 ± 0.01
AAATGGTCGG	0.974 ± 0.017
AAATGGTGGG	1.13 ± 0.16
AAATGTATGT	0.988 ± 0.037
AAATGTGCTG	1 ± 0.024
AAATGTGGGG	0.976 ± 0.049
AAATGTGTAG	0.977 ± 0.024
AAATGTTCAC	0.996 ± 0.034
AAATGTTTTT	0.999 ± 0.028
AAATTAGCTT	0.987 ± 0.084
AAATTATCGG	1 ± 0.042
AAATTCAATA	1.002 ± 0.0033
AAATTCCGGG	1.02 ± 0.035
AAATTCCTAC	1.01 ± 0.015

Sequence	switch fluorescence ratio
AAATTCGAAG	0.982 ± 0.011
AAATTCGCGT	1.01 ± 0.015
AAATTCGGGG	0.959 ± 0.037
AAATTCGTTA	0.983 ± 0.048
AAATTGAACT	1.03 ± 0.017
AAATTGCGAG	1.005 ± 0.0033
AAATTGCGGG	0.994 ± 0.048
AAATTGCTTA	1 ± 0.024
AAATTGGAAG	1.05 ± 0.078
AAATTGGGAG	1.016 ± 0.0026
AAATTGTTG	1.022 ± 0.0087
AAATTTACCG	1.05 ± 0.015
AAATTTAGTA	0.99 ± 0.018
AAATTTTTCT	1.05 ± 0.07
AAATTTTTTT	0.996 ± 0.054
AACAAGGGGG	1.01 ± 0.013
AACACAGCTC	1.02 ± 0.024
AACACCTCTC	1.1 ± 0.07
AACACGGGTA	1.02 ± 0.055
AACAGAGTTT	1.02 ± 0.026
AACAGCGGGA	1.08 ± 0.068
AACAGCGGGC	1.03 ± 0.084
AACAGCTGTG	0.998 ± 0.013

Sequence	switch fluorescence ratio
AACAGGAAGC	1.01 ± 0.017
AACAGGGCAC	1.018 ± 0.0051
AACAGGGGGG	1.02 ± 0.081
AACAGTAGGG	1.03 ± 0.012
AACAGTGTAT	1.01 ± 0.03
AACAGTTGAA	1.0083 ± 0.00099
AACATGTTGG	0.991 ± 0.047
AACCACTCAT	1.02 ± 0.053
AACCAGTATA	0.995 ± 0.024
AACCATTTGG	0.9825 ± 0.0046
AACCGATGCT	1.094 ± 0.005
AACCGATGTG	1.01 ± 0.037
AACCGGTAAT	1.01 ± 0.022
AACCGGTTAG	0.996 ± 0.011
AACCGTAGTC	1.15 ± 0.049
AACCGTGTGT	0.994 ± 0.013
AACCGTTTTG	0.979 ± 0.011
AACCTGGGCC	1.19 ± 0.099
AACCTTGTCC	1.61 ± 0.11
AACCTTTTCA	1.067 ± 0.0026
AACCTTTTTA	1.01 ± 0.045
AACGAAAGGC	1.19 ± 0.012
AACGAGGGTC	1.01 ± 0.049

Sequence	switch fluorescence ratio
AACGAGTGTC	1.09 ± 0.11
AACGATCTTT	0.9979 ± 0.0084
AACGCGCGCC	1.01 ± 0.05
AACGCGGTAT	1.03 ± 0.095
AACGGAGTGG	1 ± 0.042
AACGGATCGG	0.998 ± 0.025
AACGGATGAG	0.987 ± 0.038
AACGGCCATG	1.02 ± 0.037
AACGGCGTGA	1.08 ± 0.14
AACGGCTCTT	1.03 ± 0.074
AACGGGGCTC	1.04 ± 0.066
AACGGGGGA	0.9916 ± 0.0024
AACGGGTCTA	1.01 ± 0.035
AACGGGTGCA	0.9896 ± 0.0011
AACGGTAGTG	1.09 ± 0.03
AACGGTGATT	1.01 ± 0.07
AACGGTGTTT	1.03 ± 0.045
AACGTCTTTG	0.9977 ± 0.0033
AACGTGTACG	1.01 ± 0.065
